In article PMC4107485:

Legend:
Assay in all cases: EMSA
[1] = system: T1, BaeR (Erwinia amylovora Ea1189), ORF:3df56c72
T1 sequence: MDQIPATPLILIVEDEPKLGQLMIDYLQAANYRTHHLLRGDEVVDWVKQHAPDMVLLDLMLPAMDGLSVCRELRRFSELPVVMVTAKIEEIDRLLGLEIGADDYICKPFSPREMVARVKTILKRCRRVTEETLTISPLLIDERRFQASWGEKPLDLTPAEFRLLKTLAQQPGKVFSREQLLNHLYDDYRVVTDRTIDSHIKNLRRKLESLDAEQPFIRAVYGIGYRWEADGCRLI

[2] = molecular target: T2, CpxR (Erwinia amylovora Ea1189) (UniProt A0ABX7MGR0)
T2 sequence: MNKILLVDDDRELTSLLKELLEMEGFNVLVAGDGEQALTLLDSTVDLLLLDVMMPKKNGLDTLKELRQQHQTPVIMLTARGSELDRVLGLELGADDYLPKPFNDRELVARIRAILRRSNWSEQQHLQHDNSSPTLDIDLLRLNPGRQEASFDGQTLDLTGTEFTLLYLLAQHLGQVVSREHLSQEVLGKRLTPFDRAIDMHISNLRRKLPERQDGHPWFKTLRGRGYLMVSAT

[3] = system: BaeR, acetyl phosphate treated (Erwinia amylovora Ea1189)

Substance | binding [1] | binding [2] | binding signal (fold binding vs unphosphorylated BaeR) [3]
TGATTCTCCTGATTGATAAGTGGATAACGCAGCTGATAAGACTGGCAAACAGCGTTGCATGCGCTGCGTTGATTTGTAGCATACCATTTGCCAATACTAAATTTTCTCACCGTAGCAGCTCTTATTTAAGCCGTTATCCTTATTTCCTTCATTTTTCAGCGCCTGAAATTCGCTATCCTTGCCAGCCTGGGGGCAAGCCCTAATCCCGCCCCGCGCCCTGCTTTAATTTCACGGAGAGTAGCACCCAGGATGAAAACACCCCGACGTTTCCCCCTTATCGCCTTGACGGT (double strand) [mdtABC upstream region] | binds | no binding | 
mdtABC upstream region |  |  | 2
TCTACGGTCACGGTTAAGAAACCGCGTCGTCTTTTGCGCCGTCAGCTGCAGATCACCACGCGTATGCGTGGTTTTTTTGGCGCTATTTCATGGCGATAACATATATTAAATCTCGCATTTCTTACGGAATTCTTACGCTGCCAGCATGGAACGCCAGCAGATAAGCTAAGATAATATGCTTAACTACCCACCACCTTTGGACGGGTAAGGGGCTAAAGCCATGCCCTTTACGCCGGGTTTTTGCGCGCCGGGGATTATCCTGTCGGGTGTTGTTTA (double strand) [mdtUVW upstream region] | no binding | no binding | 
